Where a chain is given by its changes, count along the chain named.
B1: CE115HA000/GLS3000 S25V (antibody, IgG1, name in Kabat numbering, V domains shown)
VH: QVQLVESGGGVVQPGRSLRLSCAASGFTFSNAWMHWVRQAPGKGLEWVAQIKAKSNNYATYYAESVKGRFTISRDDSKNSLYLQMNSLKTEDTAVYYCRYVHYGAYYGVDAWGQGTTVTVSS
VL: DIVMTQSPLSLPVTPGEPASISCRVSQSLVHSNRNTYLHWYQQKPGQAPRLLIYKVSNRFSGVPDRFSGSGSGTDFTLKISRVEAEDVGVYYCGQGTQVPYTFGQGTKLEIK
notes: one-arm IgG1
B2: CE115HA000/GLS3000 S27eN (antibody, IgG1, name in Kabat numbering, V domains shown)
VH: B1 VH
VL: B1 VL with V25S, S32N
notes: one-arm IgG1
B3: CE115HA000/GLS3000 S27eR (antibody, IgG1, name in Kabat numbering, V domains shown)
VH: B1 VH
VL: B1 VL with V25S, S32R
notes: one-arm IgG1
B4: CE115HA000/GLS3000 S27eT (antibody, IgG1, name in Kabat numbering, V domains shown)
VH: B1 VH
VL: B1 VL with V25S, S32T
notes: one-arm IgG1
B5: CE115HA000/GLS3000 S52Y (antibody, IgG1, name in Kabat numbering, V domains shown)
VH: B1 VH
VL: B1 VL with V25S, S57Y
notes: one-arm IgG1
B6: CE115HA000/GLS3000 S52Q (antibody, IgG1, name in Kabat numbering, V domains shown)
VH: B1 VH
VL: B1 VL with V25S, S57Q
notes: one-arm IgG1
B7: CE115HA000/GLS3000 S27eP (antibody, IgG1, name in Kabat numbering, V domains shown)
VH: B1 VH
VL: B1 VL with V25S, S32P
notes: one-arm IgG1
B8: CE115HA000/GLS3000 S27aY (antibody, IgG1, name in Kabat numbering, V domains shown)
VH: B1 VH
VL: B1 VL with V25S, S28Y
notes: one-arm IgG1
B9: CE115HA000/GLS3000 S27eV (antibody, IgG1, name in Kabat numbering, V domains shown)
VH: B1 VH
VL: B1 VL with V25S, S32V
notes: one-arm IgG1
B10: CE115HA000/GLS3000 S27aN (antibody, IgG1, name in Kabat numbering, V domains shown)
VH: B1 VH
VL: B1 VL with V25S, S28N
notes: one-arm IgG1
B11: CE115HA000/GLS3000 S27eW (antibody, IgG1, name in Kabat numbering, V domains shown)
VH: B1 VH
VL: B1 VL with V25S, S32W
notes: one-arm IgG1
B12: CE115HA000/GLS3000 S27eD (antibody, IgG1, name in Kabat numbering, V domains shown)
VH: B1 VH
VL: B1 VL with V25S, S32D
notes: one-arm IgG1
B13: CE115HA000/GLS3000 S27aP (antibody, IgG1, name in Kabat numbering, V domains shown)
VH: B1 VH
VL: B1 VL with V25S, S28P
notes: one-arm IgG1
B14: CE115HA000/GLS3000 S27eH (antibody, IgG1, name in Kabat numbering, V domains shown)
VH: B1 VH
VL: B1 VL with V25S, S32H
notes: one-arm IgG1
B15: CE115HA000/GLS3000 S27eL (antibody, IgG1, name in Kabat numbering, V domains shown)
VH: B1 VH
VL: B1 VL with V25S, S32L
notes: one-arm IgG1
B16: CE115HA000/GLS3000 S27eG (antibody, IgG1, name in Kabat numbering, V domains shown)
VH: B1 VH
VL: B1 VL with V25S, S32G
notes: one-arm IgG1
B17: CE115HA000/GLS3000 S27eM (antibody, IgG1, name in Kabat numbering, V domains shown)
VH: B1 VH
VL: B1 VL with V25S, S32M
notes: one-arm IgG1
B18: CE115HA000/GLS3000 S27eK (antibody, IgG1, name in Kabat numbering, V domains shown)
VH: B1 VH
VL: B1 VL with V25S, S32K
notes: one-arm IgG1
B19: CE115HA000/GLS3000 S27aD (antibody, IgG1, name in Kabat numbering, V domains shown)
VH: B1 VH
VL: B1 VL with V25S, S28D
notes: one-arm IgG1
B20: CE115HA000/GLS3000 S52D (antibody, IgG1, name in Kabat numbering, V domains shown)
VH: B1 VH
VL: B1 VL with V25S, S57D
notes: one-arm IgG1
B21: CE115HA000/GLS3000 S26D (antibody, IgG1, name in Kabat numbering, V domains shown)
VH: B1 VH
VL: B1 VL with V25S, S26D
notes: one-arm IgG1
B22: CE115HA000/GLS3000 S27aE (antibody, IgG1, name in Kabat numbering, V domains shown)
VH: B1 VH
VL: B1 VL with V25S, S28E
notes: one-arm IgG1
B23: CE115HA000/GLS3000 S27eF (antibody, IgG1, name in Kabat numbering, V domains shown)
VH: B1 VH
VL: B1 VL with V25S, S32F
notes: one-arm IgG1
B24: CE115HA000/GLS3000 S27aI (antibody, IgG1, name in Kabat numbering, V domains shown)
VH: B1 VH
VL: B1 VL with V25S, S28I
notes: one-arm IgG1
B25: CE115HA000/GLS3000 S52A (antibody, IgG1, name in Kabat numbering, V domains shown)
VH: B1 VH
VL: B1 VL with V25S, S57A
notes: one-arm IgG1
B26: CE115HA000/GLS3000 S27eY (antibody, IgG1, name in Kabat numbering, V domains shown)
VH: B1 VH
VL: B1 VL with V25S, S32Y
notes: one-arm IgG1
B27: CE115HA000/GLS3000 S27eI (antibody, IgG1, name in Kabat numbering, V domains shown)
VH: B1 VH
VL: B1 VL with V25S, S32I
notes: one-arm IgG1
B28: CE115HA000/GLS3000 S27aG (antibody, IgG1, name in Kabat numbering, V domains shown)
VH: B1 VH
VL: B1 VL with V25S, S28G
notes: one-arm IgG1
B29: CE115HA000/GLS3000 S27eQ (antibody, IgG1, name in Kabat numbering, V domains shown)
VH: B1 VH
VL: B1 VL with V25S, S32Q
notes: one-arm IgG1
B30: CE115HA000/GLS3000 S27eE (antibody, IgG1, name in Kabat numbering, V domains shown)
VH: B1 VH
VL: B1 VL with V25S, S32E
notes: one-arm IgG1
B31: CE115HA000/GLS3000 S26P (antibody, IgG1, name in Kabat numbering, V domains shown)
VH: B1 VH
VL: B1 VL with V25S, S26P
notes: one-arm IgG1
B32: CE115HA000/GLS3000 S26E (antibody, IgG1, name in Kabat numbering, V domains shown)
VH: B1 VH
VL: B1 VL with V25S, S26E
notes: one-arm IgG1
B33: CE115HA000/GLS3000 S52P (antibody, IgG1, name in Kabat numbering, V domains shown)
VH: B1 VH
VL: B1 VL with V25S, S57P
notes: one-arm IgG1

Each binder was assayed against T1, CD3 epsilon homodimer protein (UniProt P07766 23-126) (assay: SPR, antibody over immobilised CD3e homodimer;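 also: SPR at 25 °C with CD3 epsilon homodimer amine-coupled to a CM4 sensor chip and antibody flowed over as analyte in HBS-EP+ running buffer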).
T1 construct: also called CD3 (CD3 epsilon)
T1 sequence (P07766 23-126): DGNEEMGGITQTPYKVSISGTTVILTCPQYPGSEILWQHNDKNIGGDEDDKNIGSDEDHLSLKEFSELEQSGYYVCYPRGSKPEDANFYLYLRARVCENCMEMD

KD ratio to GLS3000 | Binder
0.74 | B1
1.01 | B2
1.35 | B3
0.98 | B4
1.02 | B5
1.01 | B6
1.06 | B7
0.93 | B8
0.95 | B9
0.98 | B10
1.32 | B11
1.23 | B12
1.01 | B13
1.09 | B14
1.06 | B15
1.03 | B16
1.11 | B17

KD ratio to GLS3000 | Binder
1.32 | B18
0.94 | B19
0.94 | B20
1.06 | B21
0.94 | B22
1.16 | B23
0.87 | B24
0.9 | B25
1.1 | B26
1.05 | B27
0.8 | B28
1.08 | B29
1.04 | B30
0.67 | B31
0.9 | B32
7.38 | B33

Source: patent US20210388087A1 (Chugai, published 2021)
